EC50 and EC50 of ternary complex formation with soluble non-tagged FGF2 data for 4 substances are collected here from paper PMC9205196.

One assay concerns the target FGFR1, biotinylated (UniProt P11362). As to the kind of experiment: AlphaScreen or HTRF.
Assay [1] concerns the target Recombinant human FGF2 (fibroblast growth factor-2), biotinylated (human). As to the kind of experiment: AlphaScreen or HTRF. (Alpha assays give light when donor and acceptor beads are brought close together.)
For assay [2], the target named is Vitronectin (VN), biotinylated (UniProt P04004). As to the kind of experiment: AlphaScreen or HTRF.
In assay [3] the target is SDC1_(47HEP): murine syndecan-1 ectodomain with heparin conjugated at residue 47 (mouse) (UniProt P18828). As to the kind of experiment: ELISA.
Assay [4] addresses SDC1_(37): deglycosylated murine syndecan-1 ectodomain with p-propargyltyrosine at residue 37 (mouse) (UniProt P18828). As to the kind of experiment: ELISA. A general note: An ELISA detects its analyte on a solid surface through an enzyme-linked reagent.
Assay [5] has as its target SDC1_(37HEP): murine syndecan-1 ectodomain with heparin conjugated at residue 37 (mouse) (UniProt P18828). As to the kind of experiment: ELISA.
Assay [6] addresses SDC1_(47HS): murine syndecan-1 ectodomain with heparan sulfate conjugated at residue 47 (mouse) (UniProt P18828). As to the kind of experiment: ELISA.

By EC50 is commonly meant the midpoint of the concentration-response curve. In the assay with FGFR1, biotinylated, “SDC1_(47HEP): murine syndecan-1 ectodomain with heparin conjugated at residue 47 (from UniProt P18828 23-255) (domain or fragment)” displayed a 50% effective concentration (EC50) of 0.2 nM and an EC50 of ternary complex formation with soluble non-tagged FGF2 of 0.007 nM. The half-maximal effective concentration (EC50) in assay [1] was found to be 0.3 nM.
Take “SDC1_(37): deglycosylated murine syndecan-1 ectodomain with p-propargyltyrosine at residue 37 (from UniProt P18828 23-255) (domain or fragment)”: the EC50 in assay [2] was above 100 nM; with FGFR1, biotinylated, above 20 nM; in assay [1] it was above 100 nM. This substance yielded an EC50 of ternary complex formation with soluble non-tagged FGF2 with FGFR1, biotinylated above 20 nM.
For the substance “Recombinant human αvβ3 integrin (from UniProt P06756-1 31-992; P05106 27-718) (complex)”, the EC50 turned out to be 5 nM in assay [3], 100 nM in assay [4], 10 nM in assay [5] and 40 nM in assay [6].
On to “SDC1_(37HEP): murine syndecan-1 ectodomain with heparin conjugated at residue 37 (from UniProt P18828 23-255) (domain or fragment)”, for which the EC50 in assay [2] came out at 1 nM; with FGFR1, biotinylated, 0.3 nM; in assay [1] it was 0.4 nM. This substance also showed an EC50 of ternary complex formation with soluble non-tagged FGF2 with FGFR1, biotinylated of 0.007 nM.
